Measurements reported in PMC2630536.

Tests used:
[1] = target: fluorescein-EGR-chloromethylketone-labeled thrombin (bovine) (bovine); test: other fluorescence titration
[2] = target: TMEGF456 D349N; test: SPR
[3] = target: TMEGF456 E357Q; test: SPR
[4] = target: TMEGF456 M388L; test: SPR
[5] = target: TMEGF456 Y358F; test: SPR

Row | Substance | Kd [1] [nM] | further results
1 | TMEGF45 D349N (domain or fragment) | 43 | 
2 | TMEGF45 E357Q (domain or fragment) | 55 | 
3 | thrombin (PPACK-thrombin in the SPR; active thrombin in the protein C activation assay) (enzyme) |  | Kd [2]: 4.2 nM; Kd [3]: 5.2 nM; Kd [4]: 4.4 nM; Kd [5]: 2.6 nM

More lines, main results first:

Row | Kd [1] [nM] | Substance | further results
4 | 49 | TMEGF45 D400E (domain or fragment) | 
5 | 57 | TMEGF45 M388L (domain or fragment) | 
6 | 68 | TMEGF45 wild type (domain or fragment) | 
